B1: β-Klotho-binding monomer LNR_M19 (designed binder)
chain: CNPVYDPYCAAFFGDGGCGPHCGLAECVWDGMDCDHKEVRELT
B2: β-Klotho-binding monomer LNR_M14 (designed binder)
chain: CHPLIREYCEKFFGDGGCDSGCNNSRCDWDGDDCGLIQHGDVT
B3: β-Klotho-binding monomer LNR_M18 (designed binder)
chain: CNPPIGQYCTQLFGDGDCGPDCDLAECVWDGDDCDPVAVPDVT
B4: β-Klotho-binding monomer LNR_M20 (designed binder)
chain: CNPPIGQYCTQLFGDGDCGPECNLAECVWDGDDCDPVAVPELT
B5: β-Klotho-binding monomer LNR_M05 (designed binder)
chain: CMAYNLCTALVGDGECDQECDTPTCNWDGGDCAVKSAPDST
B6: β-Klotho-binding monomer LNR_M06 (designed binder)
chain: CMEAKSCQARDGDGDCGQGCNLAECIWDGMDCRPEWIRELT
B7: β-Klotho-binding monomer LNR_M12 (designed binder)
chain: CREYSMCTRFDGDGICHEQCGYPRCLWDGLDCANNFDHEVT
B8: β-Klotho-binding monomer LNR_M08 (designed binder)
chain: CIAAKLCERLDGDGSCQSECGNATCGWDGMDCDEKENDELT
B9: β-Klotho-binding monomer LNR_M02 (designed binder)
chain: CPPHIEDHCERRDGDGVCQKPCDFYGCLWDGVNCDMDLVQELT
B10: β-Klotho-binding monomer LNR_M10 (designed binder)
chain: CPPHIEDHCERRDGDGVCQKPCDFYGCLWDGVDCDMDLVEELT
B11: β-Klotho-binding monomer LNR_M21 (designed binder)
chain: CHPLIREYCTHYDGDGECDKGCDSAKCKWDGDDCDMDVLAEVT
B12: β-Klotho-binding monomer LNR_M09 (designed binder)
chain: CMAYLLCKKYYGDGICRSECDTATCSWDGFDCPVNEIEDLT
B13: β-Klotho-binding monomer LNR_M04 (designed binder)
chain: CREYISCPNFYGDGRCQQDCNLAKCVWDGLDCADVWSEDLT
B14: β-Klotho-binding monomer LNR_M15 (designed binder)
chain: CNPLYDDHCAAFFGDGGCGPECSLAECLWDGGDCEEERDADVT
B15: β-Klotho-binding monomer LNR_M11 (designed binder)
chain: CMAYNLCQALVGDGSCNSECDTETCGWDGMDCATVEGAEAT
B16: β-Klotho-binding monomer LNR_M01 (designed binder)
chain: CIAAKLCEALDGDGVCHKECDLEECDWDGGDCQRIFLTDPT
B17: β-Klotho-binding monomer LNR_M13 (designed binder)
chain: CNPLYDPHCRSYFGDGDCGPGCDLAACLWDGGDCPGVAAAELT
B18: β-Klotho-binding monomer LNR_M16 (designed binder)
chain: CNPKYDAHCASYFGDGECDPACSLAECVWDGDDCDPNFLTDVT
B19: β-Klotho-binding monomer LNR_M17 (designed binder)
chain: CPAHYGTHCEERDGDGKCHQGCDFATCDWDGMDCGMDLVRELT
B20: β-Klotho-binding monomer LNR_M07 (designed binder)
chain: CLYQDCKEYYGDGNCSKGCNLAECLWDGGDCGTIFLADVT
B21: β-Klotho-binding monomer LNR_M03 (designed binder)
chain: CNPIIQHYCETYDGDGLCESACNFYGCAWDGFDCQVISDKDST
B22: FGFR1c-binding monomer M23mut16 (designed binder)
chain: CGSNLFTCRSTNICISPAWVCDGVDDCDDDSDETGCSQDPEFHKV
notes: also called M23mutM16
B23: FGFR1c-binding monomer M23mut15 (designed binder)
chain: CGSNLFTCRRTNICISKAWVCDGVDDCEDNSDETGCSQDPEFHKV
notes: also called M23mutM15
B24: FGFR1c-binding monomer M23mut12 (designed binder)
chain: CGANLFTCRSTNICISPTWVCDGVDDCDDNSDEIGCSQDLEFHKV
B25: FGFR1c-binding monomer M23mut11 (designed binder)
chain: CGANLFTCRSTNICISPAWVCDGVDDCEDYSDEIGCSQDPEFHKV
notes: also called M23mutM11
B26: FGFR1c-binding monomer M23mut13 (designed binder)
chain: CGPNLFTCRSTNICISRAWVCDGVDDCDDESDEQGCSQDPEFHKV
B27: FGFR1c-binding monomer M23mut14 (designed binder)
chain: CGSDMFTCRSTNICISKVWVCDGVDDCEDDSDERGCSQDPEFHKV
notes: also called M23mutM14
B28: FGFR1c-binding monomer M23mut10 (designed binder)
chain: CGANLFTCQSTNICISDAWVCDGVDDCEDNSDETTCSQDPEFHKV
notes: also called M23mutM10
B29: FGFR1c-binding monomer M23mut18 (designed binder)
chain: CGTNMFTCQRTNICISDAWVCDGVDDCEDYSDETACSQDPEFHKV
B30: FGFR1c-binding monomer M08 (designed binder)
chain: CGAGQFTCRDTNICISRAWRCDGVDDCEDNSDEADCSQDPEFHKV
notes: also called R1cM08
B31: FGFR1c-binding monomer M31 (designed binder)
chain: CLSDQFTCRSTNICLPLQWVCDGDDDCEDNSDEEDCSAPASEPPGSL
notes: also called R1cM31
B32: FGFR1c-binding monomer M33 (designed binder)
chain: CRLNEFPCGSGSCISLHWVCDSVPDCRDDSDETDCPERT
B33: FGFR1c-binding monomer M26 (designed binder)
chain: CGSSQFTCHNTNICLPRARVCDGVDDCEDNSDEAGCGDSHILPFSTPGPST
B34: FGFR1c-binding monomer M12 (designed binder)
chain: CGAGQFTCRSTNICLPLQWVCDGVDDCEDNSDEAGCGDSHILPFSTPGPST
B35: FGFR1c-binding monomer M20 (designed binder)
chain: CGPNQFTCRSTNICLSQTWVCDGVDDCEDGSDETNCGRPGPGATSAPAA
B36: FGFR1c-binding monomer M29 (designed binder)
chain: CGSSQFTCHNTNICLPRAWVCDGVDDCEDNSDEKNCSAPASEPPGSL

In one test the target is T1, recombinant human β-Klotho (human, UniProt Q86Z14 53-996, limits assumed, biotinylated in the AlphaScreen assays (site not stated)).
T1 construct: also called rhβ-klotho; huβKlotho-His
T1 sequence: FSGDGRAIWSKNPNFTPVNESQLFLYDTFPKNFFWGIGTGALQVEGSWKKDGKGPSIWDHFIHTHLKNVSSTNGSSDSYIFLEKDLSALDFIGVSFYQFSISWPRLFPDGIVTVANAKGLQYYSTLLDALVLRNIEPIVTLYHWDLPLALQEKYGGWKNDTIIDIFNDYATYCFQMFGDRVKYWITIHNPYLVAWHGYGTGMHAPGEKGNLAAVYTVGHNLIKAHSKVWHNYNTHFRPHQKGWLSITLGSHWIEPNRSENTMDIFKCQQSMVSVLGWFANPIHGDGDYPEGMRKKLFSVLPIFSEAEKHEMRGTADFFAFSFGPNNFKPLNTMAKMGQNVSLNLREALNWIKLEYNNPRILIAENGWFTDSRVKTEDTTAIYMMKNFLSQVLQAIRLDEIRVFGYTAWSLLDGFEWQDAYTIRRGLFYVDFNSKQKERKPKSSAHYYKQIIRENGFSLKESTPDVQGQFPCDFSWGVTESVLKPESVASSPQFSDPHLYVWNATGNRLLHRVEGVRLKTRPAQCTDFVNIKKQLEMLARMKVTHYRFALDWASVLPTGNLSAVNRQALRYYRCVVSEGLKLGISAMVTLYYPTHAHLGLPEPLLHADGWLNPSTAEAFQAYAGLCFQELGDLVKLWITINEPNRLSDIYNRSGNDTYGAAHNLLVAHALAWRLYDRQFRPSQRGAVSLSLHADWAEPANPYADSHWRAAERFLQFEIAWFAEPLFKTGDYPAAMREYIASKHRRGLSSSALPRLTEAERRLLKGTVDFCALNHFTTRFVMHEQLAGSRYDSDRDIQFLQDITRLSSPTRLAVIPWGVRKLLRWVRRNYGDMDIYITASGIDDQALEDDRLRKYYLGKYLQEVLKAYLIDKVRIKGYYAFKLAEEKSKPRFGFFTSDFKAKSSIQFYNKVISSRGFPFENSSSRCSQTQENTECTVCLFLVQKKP
The experiment in a line: phage panning.
In the case of B1, the binding result is given as “binds”. Same read-out and setting: the result for B2 reads “binds”.

Take B3: the binding result is “binds”. Still for that read-out and setting: the result for B4 reads “binds”; that for B5, “binds”. Turning to B6, the binding result is given as “binds”. The same measure, in the same setting: the result for B7 reads “binds”. With B8, the binding result is reported as “binds”. As to B9, the binding result is “binds”. Take B10: the binding result was “binds”.

Regarding B11, the binding result is “binds”.

Turning to B12, the binding result is “binds”. Consider B13, for which the binding result is listed as “binds”. Take B14: the binding result was “binds”. B15: the binding result is reported as “binds”. With B16, the binding result was “binds”. The same measure, in the same setting: the result for B17 reads “binds”; that for B18, “binds”; that for B19, “binds”. Same read-out and setting: the result for B20 reads “binds”. Still for that read-out and setting: the result for B21 reads “binds”.

Another test concerns the target T2, human FGFR1c-Fc (human, UniProt P11362 22-376).
T2 construct: also called huFGFR1c-Fc; huFGFR1c/Fc
T2 sequence: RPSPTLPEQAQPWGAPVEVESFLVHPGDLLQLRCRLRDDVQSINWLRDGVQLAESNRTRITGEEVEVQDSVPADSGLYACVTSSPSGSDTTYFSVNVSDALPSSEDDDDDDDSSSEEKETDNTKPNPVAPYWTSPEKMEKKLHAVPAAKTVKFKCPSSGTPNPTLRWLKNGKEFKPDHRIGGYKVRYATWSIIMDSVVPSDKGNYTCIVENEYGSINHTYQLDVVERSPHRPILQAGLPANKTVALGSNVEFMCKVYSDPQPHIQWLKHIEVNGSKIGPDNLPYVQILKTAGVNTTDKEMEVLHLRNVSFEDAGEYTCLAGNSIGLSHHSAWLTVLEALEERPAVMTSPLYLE
In words: phage panning.
Regarding B22, the binding result is “binds”. Still for that read-out and setting: the result for B23 reads “binds”; that for B24, “binds”. Still for that read-out and setting: the result for B25 reads “binds”. Same read-out and setting: the result for B26 reads “binds”; that for B27, “binds”; that for B28, “binds”. Turning to B29, the binding result is on record as “binds”.

The target of a further test is T2, human FGFR1c-Fc. The experiment in a line: phage panning. This is another data set of the same source.
B30: the binding result is “binds”.

Turning to B31, the binding result is “binds”. Turning to B32, the binding result is “binds”.

Turning to B33, the binding result was “binds”. With B34, the binding result is reported as “binds”. The same measure, in the same setting: the result for B35 reads “binds”; that for B36, “binds”.

The record behind these values is US20130197191A1 (Amgen, published 2013).
